B1: Hypermethylated in cancer 1 protein (Homo sapiens), Q14526 (parent)
chain: MTFPEADILLKSGECAGQTMLDTMEAPGHSRQLLLQLNNQRTKGFLCDVIIVVQNALFRAHKNVLAASSAYLKSLVVHDNLLNLDHDMVSPAVFRLVLDFIYTGRLADGAEAAAAAAVAPGAEPSLGAVLAAASYLQIPDLVALCKKRLKRHGKYCHLRGGGGGGGGYAPYGRPGRGLRAATPVIQACYPSPVGPPPPPAAEPPSGPEAAVNTHCAELYASGPGPAAALCASERRCSPLCGLDLSKKSPPGSAAPERPLAERELPPRPDSPPSAGPAAYKEPPLALPSLPPLPFQKLEEAAPPSDPFRGGSGSPGPEPPGRPDGPSLLYRWMKHEPGLGSYGDELGRERGSPSERCEERGGDAAVSPGGPPLGLAPPPRYPGSLDGPGAGGDGDDYKSSSEETGSSEDPSPPGGHLEGYPCPHLAYGEPESFGDNLYVCIPCGKGFPSSEQLNAHVEAHVEEEEALYGRAEAAEVAAGAAGLGPPFGGGGDKVAGAPGGLGELLRPYRCASCDKSYKDPATLRQHEKTHWLTRPYPCTICGKKFTQRGTMTRHMRSHLGLKPFACDACGMRFTRQYRLTEHMRIHSGEKPYECQVCGGKFAQQRNLISHMKMHAVGGAAGAAGALAGLGGLPGVPGPDGKGKLDFPEGVFAVARLTAEQLSLKQQDKAAAAELLAQTTHFLHDPKVALESLYPLAKFTAELGLSPDKAAEVLSQGAHLAAGPDGRTIDRFSPT

Variants of: B1
Details: with ctbp2_mouse Ctbp2, P56546
Chain of ctbp2_mouse Ctbp2, P56546 (P56546 whole entry): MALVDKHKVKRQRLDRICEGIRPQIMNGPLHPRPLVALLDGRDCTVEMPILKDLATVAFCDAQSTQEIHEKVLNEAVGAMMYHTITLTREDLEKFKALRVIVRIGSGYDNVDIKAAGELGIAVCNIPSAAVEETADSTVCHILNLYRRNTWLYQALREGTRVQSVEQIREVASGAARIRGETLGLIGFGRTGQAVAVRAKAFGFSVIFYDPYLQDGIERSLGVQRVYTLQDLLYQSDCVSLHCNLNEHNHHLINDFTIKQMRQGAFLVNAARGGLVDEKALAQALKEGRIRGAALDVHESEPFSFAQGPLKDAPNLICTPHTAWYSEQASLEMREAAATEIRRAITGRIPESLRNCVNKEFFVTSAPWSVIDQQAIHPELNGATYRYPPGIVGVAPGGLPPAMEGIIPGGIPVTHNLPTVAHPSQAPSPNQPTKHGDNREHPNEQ

effect of a mutation on the interaction	Variant
disrupting interaction	L244A

Variants of: B1
Details: with ctbp1_mouse Ctbp1, O88712

effect of a mutation on the interaction	Variant
disrupting interaction	L244A

From IntAct's records for PubMed 16762039
